Assay results taken from patent US20080131510.

Tests used:
[1] = biological target: T1, Lys*-Pro-Ala-Gly-Leu-Leu-Gly-Cys (SEQ ID NO:2), pendant in PEG(8000)DA hydrogel and complexed with Pt (not fully specified)
T1 chain: KPAGLLGC

[2] = biological target: T2, Lys*-Gly-Leu-Cys (SEQ ID NO:33)
T2 chain: KGLC

[3] = biological target: T3, Lys*-Pro-Ala-Gly-Leu-Leu-Gly-Cys (SEQ ID NO:2)
T3 chain: KPAGLLGC

[4] = biological target: T4, Lys*-Ala-Gly-Leu-Leu-Cys (SEQ ID NO:32)
T4 chain: KAGLLC

[5] = biological target: T2, Lys*-Gly-Leu-Cys (SEQ ID NO:33); test: peptide cleavage kinetics by HPLC, 10 nM activated MMP; the filing calls Km 'affinity or binding strength'
[6] = biological target: T3, Lys*-Pro-Ala-Gly-Leu-Leu-Gly-Cys (SEQ …); test: as above
[7] = biological target: T4, Lys*-Ala-Gly-Leu-Leu-Cys (SEQ ID NO:32); test: as above

B1: matrix metalloprotease-2 (MMP-2), activated (protein)
chain: YNFFPRKPKWDKNQITYRIIGYTPDLDPETVDDAFARAFQVWSDVTPLRFSRIHDGEADIMINFGRWEHGDGYPFDGKDGLLAHAFAPGTGVGGDSHFDDDELWTLGEGQVVRVKYGNADGEYCKFPFLFNGKEYNSCTDTGRSDGFLWCSTTYNFEKDGKYGFCPHEALFTMGGNAEGQPCKFPFRFQGTSYDSCTTEGRTDGYRWCGTTEDYDRDKKYGFCPETAMSTVGGNSEGAPCVFPFTFLGNKYESCTSAGRSDGKMWCATTANYDDDRKWGFCPDQGYSLFLVAAHEFGHAMGLEHSQDPGALMAPIYTYTKNFRLSQDDIKGIQELYGASPDIDLGTGPTPTLGPVTPEICKQDIVFDGIAQIRGEIFFFKDRFIWRTVTPRDKPMGPLLVATFWPELPEKIDAVYEAPQEEKAVFFAGNEYWIYSASTLERGYPKPLTSLGLPPDVQRVDAAFNWSKNKKTYIFAGDKFWRYNEVKKKMDPGFPKLIADAWNAIPDNLDAVVDLQGGGHSYFFKGAYYLKLENQSLKSVKFGSIKSDWLGC
Q: How did the “release of cleaved fragment from the PEG(8000)DA hydrogels” value [1] turn out when B1 was run?
A: Its value is “the addition of MMP-2 and MMP-9 showed a significantly higher release of cleaved fragment from the PEG(8000)DA hydrogels compared to the control”.

Q: What about the Kcat/Km [2] of the same protein?
A: Its Kcat/Km is 439 M⁻¹ s⁻¹.

Q: And the Vmax [2]?
A: The Vmax was 8.8e-10 M/s.

Q: What about the kcat [2] of the same protein?
A: Its kcat is 0.035 s⁻¹.

Q: And the Kcat/Km [3]?
A: The Kcat/Km was 10700 M⁻¹ s⁻¹.

Q: And the Vmax [3]?
A: Its Vmax is 2.7e-07 M/s.

Q: What about the kcat [3] of the same protein?
A: The kcat was 10.7 s⁻¹.

Q: What about the Kcat/Km [4] of the same protein?
A: The Kcat/Km was 171 M⁻¹ s⁻¹.

Q: What about the Vmax [4] of the same protein?
A: Its Vmax is 6.02e-09 M/s.

Q: What about the kcat [4] of the same protein?
A: Its kcat is 0.24 s⁻¹.

Q: What about the Km [5] of the same protein?
A: Its Km is 81 µM.

Q: And the Km [6]?
A: The Km was 1000 µM.

Q: And the Km [7]?
A: Its Km is 1400 µM.
